Data: patent publication US20150259380A1 (SANFORD BURNHAM MEDICAL RESEARCH INSTITUTE, published 2015)
Ends that are not written are not given here.

Columns and labels:
[1] = biological target: T1, recombinant human NRP1 (R&D), purified (human, UniProt O14786-2 22-644, limits assumed); assay: phage binding to NRP1-coated microtiter wells, plaque titration (FIG. 2)
T1 construct: Bought protein; also called purified NRP1; immobilized NRP1
T1 sequence (looked up): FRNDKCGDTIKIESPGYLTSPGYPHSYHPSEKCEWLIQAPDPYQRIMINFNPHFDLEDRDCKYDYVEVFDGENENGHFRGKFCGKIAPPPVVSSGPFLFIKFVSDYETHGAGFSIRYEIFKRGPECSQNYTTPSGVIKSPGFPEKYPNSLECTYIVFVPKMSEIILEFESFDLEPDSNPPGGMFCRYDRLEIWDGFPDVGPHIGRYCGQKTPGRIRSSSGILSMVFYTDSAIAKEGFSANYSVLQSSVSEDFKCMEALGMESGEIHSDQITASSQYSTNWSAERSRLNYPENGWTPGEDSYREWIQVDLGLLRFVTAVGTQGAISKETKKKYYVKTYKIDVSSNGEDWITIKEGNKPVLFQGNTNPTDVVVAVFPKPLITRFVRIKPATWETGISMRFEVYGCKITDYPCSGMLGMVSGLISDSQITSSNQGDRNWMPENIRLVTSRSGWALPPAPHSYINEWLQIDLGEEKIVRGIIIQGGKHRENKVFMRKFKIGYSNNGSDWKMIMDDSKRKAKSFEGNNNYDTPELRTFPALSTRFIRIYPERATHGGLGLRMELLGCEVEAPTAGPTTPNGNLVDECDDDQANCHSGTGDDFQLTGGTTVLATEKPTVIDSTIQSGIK
Procedure: (§1) Microtiter wells (Costar) were coated with 5 μg/mL of purified NRP1 or NRP2, blocked with PBS supplemented with 0.5% BSA and incubated with 10⁸ plaque-forming units (pfu) of phage in 100 μL of PBS/0.05% Tween 20 for 20 h at 37° C. After six washes in PBS/0.05% Tween 20, bound phage was eluted with 200 μL of 1 M Tris-HCl (pH 7.5)/0.5% SDS for 30 min and quantified by a plaque assay (titration).

[2] = biological target: T2, recombinant human NRP2 Fc chimera (R&D), purified (human, UniProt O60462 23-864); assay: phage binding to NRP2-coated microtiter wells, plaque titration (FIG. 3A)
T2 construct: Bought Fc chimera; also called purified NRP2; neuropilin-2; Fc part of the bought chimera not given; not described
T2 sequence (looked up): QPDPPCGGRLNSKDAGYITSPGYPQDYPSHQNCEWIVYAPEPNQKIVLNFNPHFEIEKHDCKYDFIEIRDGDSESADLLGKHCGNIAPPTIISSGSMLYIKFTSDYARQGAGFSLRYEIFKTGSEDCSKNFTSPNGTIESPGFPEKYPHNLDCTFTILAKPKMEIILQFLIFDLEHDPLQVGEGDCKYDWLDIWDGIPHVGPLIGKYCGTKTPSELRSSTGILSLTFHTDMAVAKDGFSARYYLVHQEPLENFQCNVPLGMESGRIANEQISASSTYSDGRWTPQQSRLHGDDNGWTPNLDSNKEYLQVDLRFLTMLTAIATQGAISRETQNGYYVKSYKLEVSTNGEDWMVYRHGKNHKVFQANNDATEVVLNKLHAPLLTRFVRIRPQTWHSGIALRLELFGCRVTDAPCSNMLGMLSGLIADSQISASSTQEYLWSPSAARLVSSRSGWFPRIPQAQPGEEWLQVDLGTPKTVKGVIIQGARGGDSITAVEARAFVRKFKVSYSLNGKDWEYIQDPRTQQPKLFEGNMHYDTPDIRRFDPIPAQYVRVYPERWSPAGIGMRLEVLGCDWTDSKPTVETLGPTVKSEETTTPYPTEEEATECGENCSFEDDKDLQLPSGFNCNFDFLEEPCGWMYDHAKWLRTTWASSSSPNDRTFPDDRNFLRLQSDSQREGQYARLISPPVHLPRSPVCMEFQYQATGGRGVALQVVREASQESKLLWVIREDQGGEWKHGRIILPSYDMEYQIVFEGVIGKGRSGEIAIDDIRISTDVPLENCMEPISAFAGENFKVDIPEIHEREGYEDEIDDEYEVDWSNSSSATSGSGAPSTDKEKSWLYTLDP
Procedure: B. MDA-MB-435 cells were incubated with phage at 4° C. to assess NRP2 binding. […] Binding is expressed as percentage of binding in control conditions. (mean±SEM; n=4/group; * p<0.05; **, p<0.01).
as §1

[3] = biological target: T3, NRP1 on human tumor cells (DU145 prostate carcinoma cells; PPC1 prostate tumor cells) (human, UniProt O14786 22-923); assay: 10^9 pfu phage on cultured PPC1 cells, anti-T7 staining, confocal microscopy
T3 construct: whole, on cells; DU145 express NRP1 but not NRP2; PPC1 express very high NRP1 and low NRP2; also called neuropilin-1; CendR receptor
Procedure: Phage were detected by staining with anti-T7 phage polyclonal antibody. Nuclei were stained with DAPI. […] Cells were co-stained for NRP1 and nuclei were stained with DAPI. […] Non-conjugated neutravidin was used as a control. Nuclei were stained with DAPI. Cells were analyzed by confocal microscopy.

[4] = biological target: T3, NRP1 on human tumor cells (DU145 …); assay: phage binding to DU145 cells at 4 C with or without anti-NRP1 (FIG. 1B)
[5] = biological target: T4, p32 in 4T1 breast tumor extracts (mouse, UniProt O35658 71-278); assay: affinity chromatography of 4T1 tumor extracts on immobilized tLyP-1
T4 construct: Endogenous protein from tumor extract
T4 sequence (looked up): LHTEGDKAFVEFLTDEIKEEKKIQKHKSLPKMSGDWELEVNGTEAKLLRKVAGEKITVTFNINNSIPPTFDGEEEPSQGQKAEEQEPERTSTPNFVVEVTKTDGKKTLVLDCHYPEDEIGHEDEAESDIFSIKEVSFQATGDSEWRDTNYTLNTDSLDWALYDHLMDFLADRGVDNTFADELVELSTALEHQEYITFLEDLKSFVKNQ

Binder: RPARPAR [RPARPAR phage (T7 phage displaying the prototypic CendR peptide RPARPAR)]
- binding as fold over control (insertless) phage [1]: 276 fold
- binding ratio over the control phage [1]: 280 fold
- binding as fold over control (insertless) phage [2]: 29 fold

B1: LyP-1 phage (T7 phage displaying full-length LyP-1, CGNKRTRGC) (peptide)
peptide: CGNKRTRGC
modifications: also: cyclic nonapeptide, ring not given here, displayed on T7 phage
notes: LyP-1 is described as a cyclic nonapeptide; also called intact LyP-1
- binding as fold over control (insertless) phage [1]: 1.6 fold
- binding result [1]: no binding
- binding as fold over control (insertless) phage [2]: 0.6 fold
- binding result [2]: no binding
- binding result [3]: no binding

Binder: CGNKRTR (also called CGNKRTR phage; phage tLyP-1) [tLyP-1 phage (T7 phage displaying CGNKRTR, truncated LyP-1)]
- binding as fold over control (insertless) phage [1]: 119 fold
- binding as fold over insertless control phage [1]: ~120 fold
- binding as fold over control (insertless) phage [2]: 8 fold

Binder: CGNK [CGNK phage (truncated LyP-1, amino acids 1-4 of SEQ ID NO:10)]
- binding result [4]: no binding

Binder: CGNKR [CGNKR phage (truncated LyP-1, amino acids 1-5 of SEQ ID NO:10)]
- binding result [4]: no binding

Binder: CGNKRTR (the coupling is not described) [tLyP-1 affinity matrix (immobilized tLyP-1 peptide)]
- binding result [5]: no binding
